The values that follow come from the supplement of paper PMC7125110.

First the molecules themselves.
B1: glmS ribozyme (parent)
chain: AUAAAAGCGCCAGAACUACAGAAAUGUAGUUGACGAGGAGGAGGUUUAUCGAAUUUUCGGCGGAUGCCUCCAAA

± gives the standard error. For part of these data: Variants at the floor of the assay were thinned out.

Holding throughout (conditions): with glucosamine-6-phosphate
The variants in series [1] derive from B1. As to the kind of experiment: self-cleavage kobs at 40 uM GlcN6P; higher = faster cleavage; RNA array. The method, boiled down:
(§1)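 Tiles bearing barcoded ribozyme variants, transcribed in situ by E. coli RNA polymerase on sequenced MiSeq chips, were imaged over ~14 h at 37 °C using a hybridised Cy3 probe. Glucosamine-6-phosphate was supplied at 40 μM to 10 mM in HEPES/KCl/Mg(OAc)2 buffer. kobs came from one- or two-exponential decay fits to normalised per-tile medians, and weighted Michaelis–Menten fits then provided kcat and KM.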

Variants of B1 are the subject of series [2]. In words: self-cleavage kobs at 160 uM GlcN6P; higher = faster cleavage; RNA array. In a few lines:
as §1

The variants in series [3] derive from B1. As to the kind of experiment: self-cleavage kobs at 640 uM GlcN6P; higher = faster cleavage; RNA array. In a few lines:
as §1

In series [4] the parent is B1. In words: self-cleavage kobs at 2500 uM GlcN6P; higher = faster cleavage; RNA array. In a few lines: as §1
Variants of B1 are the subject of series [5]. As to the kind of experiment: self-cleavage kobs at 10000 uM GlcN6P; higher = faster cleavage; RNA array. The method, boiled down: as §1
Variants of B1 are the subject of series [6]. As to the kind of experiment: kcat; higher = faster cleavage; RNA array. In a few lines:
as §1

Variants of B1 are the subject of series [7]. In words: KM; higher = weaker cofactor use; RNA array. The method, boiled down:
as §1

One may read the kcat as the number of substrate molecules converted per active site and unit of time at saturation. In general, KM refers to the substrate concentration at which the rate is half of its maximum.

Consider G38C U55G, for which the “self-cleavage kobs at 40 uM GlcN6P” value with glucosamine-6-phosphate [1] is < 1e-05 s⁻¹. For the same variant, the “self-cleavage kobs at 160 uM GlcN6P” value in the series with glucosamine-6-phosphate [2] is < 1e-05 s⁻¹. In addition, the “self-cleavage kobs at 640 uM GlcN6P” value with glucosamine-6-phosphate [3] was < 1e-05 s⁻¹. For the same variant, in the series with glucosamine-6-phosphate [4], the “self-cleavage kobs at 2500 uM GlcN6P” value is < 1e-05 s⁻¹. Besides, the “self-cleavage kobs at 10000 uM GlcN6P” value with glucosamine-6-phosphate [5] was < 1e-05 s⁻¹.

As to C11G C58U G59U, the “self-cleavage kobs at 40 uM GlcN6P” value with glucosamine-6-phosphate [1] is < 1e-05 s⁻¹. The “self-cleavage kobs at 10000 uM GlcN6P” value with glucosamine-6-phosphate [5] is < 1e-05 s⁻¹.

For G32U C61G, in the series with glucosamine-6-phosphate [1], the “self-cleavage kobs at 40 uM GlcN6P” value is < 1e-05 s⁻¹. Also, the “self-cleavage kobs at 640 uM GlcN6P” value with glucosamine-6-phosphate [3] was < 1e-05 s⁻¹.

In the case of G7U C10G A15U C34A G40U C58G G60C G63A, the “self-cleavage kobs at 40 uM GlcN6P” value with glucosamine-6-phosphate [1] is < 1e-05 s⁻¹. Further, the “self-cleavage kobs at 640 uM GlcN6P” value in the series with glucosamine-6-phosphate [3] is < 1e-05 s⁻¹. Also, in the series with glucosamine-6-phosphate [5], the “self-cleavage kobs at 10000 uM GlcN6P” value is < 1e-05 s⁻¹.

With C16U A39C C68A, the “self-cleavage kobs at 40 uM GlcN6P” value with glucosamine-6-phosphate [1] was < 1e-05 s⁻¹. Further, the “self-cleavage kobs at 10000 uM GlcN6P” value in the series with glucosamine-6-phosphate [5] was < 1e-05 s⁻¹.

With C16G U30C, in the series with glucosamine-6-phosphate [6], the kcat was 0.000111 ± 8.3e-06 s⁻¹. In the series with glucosamine-6-phosphate [7], the KM worked out at 763 ± 200 µM. Moreover, the “self-cleavage kobs at 640 uM GlcN6P” value with glucosamine-6-phosphate [3] is 5.29e-05 ± 9.6e-06 s⁻¹. Further, the “self-cleavage kobs at 2500 uM GlcN6P” value in the series with glucosamine-6-phosphate [4] amounted to 7.58e-05 ± 1.2e-05 s⁻¹. In the series with glucosamine-6-phosphate [5], the “self-cleavage kobs at 10000 uM GlcN6P” value was found to be 0.000109 ± 1.3e-05 s⁻¹.

Consider C8G G13U, for which the “self-cleavage kobs at 40 uM GlcN6P” value in the series with glucosamine-6-phosphate [1] is < 1e-05 s⁻¹. Also, the “self-cleavage kobs at 160 uM GlcN6P” value with glucosamine-6-phosphate [2] is < 1e-05 s⁻¹. For the same variant, the “self-cleavage kobs at 640 uM GlcN6P” value in the series with glucosamine-6-phosphate [3] was < 1e-05 s⁻¹. In addition, the “self-cleavage kobs at 2500 uM GlcN6P” value with glucosamine-6-phosphate [4] is < 1e-05 s⁻¹. Further, in the series with glucosamine-6-phosphate [5], the “self-cleavage kobs at 10000 uM GlcN6P” value is < 1e-05 s⁻¹.

For the variant A53U U56C C71U, the kcat in the series with glucosamine-6-phosphate [6] is 0.00121 ± 0.00019 s⁻¹. In the series with glucosamine-6-phosphate [7], the KM came out at 4240 ± 1000 µM. The “self-cleavage kobs at 160 uM GlcN6P” value with glucosamine-6-phosphate [2] is 4.8e-05 ± 1.3e-05 s⁻¹. For the same variant, the “self-cleavage kobs at 2500 uM GlcN6P” value with glucosamine-6-phosphate [4] amounted to 0.000406 ± 9.1e-05 s⁻¹. In addition, the “self-cleavage kobs at 10000 uM GlcN6P” value with glucosamine-6-phosphate [5] stood at 0.000903 ± 0.0002 s⁻¹.

As to C16U U30A G37A G40U U65A, the “self-cleavage kobs at 40 uM GlcN6P” value with glucosamine-6-phosphate [1] is < 1e-05 s⁻¹. In addition, the “self-cleavage kobs at 10000 uM GlcN6P” value with glucosamine-6-phosphate [5] is < 1e-05 s⁻¹.

For G37C G41U, the “self-cleavage kobs at 40 uM GlcN6P” value with glucosamine-6-phosphate [1] was < 1e-05 s⁻¹. For the same variant, the “self-cleavage kobs at 160 uM GlcN6P” value with glucosamine-6-phosphate [2] was < 1e-05 s⁻¹. The “self-cleavage kobs at 640 uM GlcN6P” value with glucosamine-6-phosphate [3] is < 1e-05 s⁻¹. The “self-cleavage kobs at 2500 uM GlcN6P” value with glucosamine-6-phosphate [4] was < 1e-05 s⁻¹. Moreover, the “self-cleavage kobs at 10000 uM GlcN6P” value with glucosamine-6-phosphate [5] was < 1e-05 s⁻¹.

With A39C C71A, the kcat with glucosamine-6-phosphate [6] was determined as 6.38e-05 ± 6.4e-06 s⁻¹. For the same variant, the KM with glucosamine-6-phosphate [7] is 1930 ± 720 µM. Also, the “self-cleavage kobs at 2500 uM GlcN6P” value in the series with glucosamine-6-phosphate [4] amounted to 4.16e-05 ± 1.1e-05 s⁻¹. Besides, the “self-cleavage kobs at 10000 uM GlcN6P” value with glucosamine-6-phosphate [5] was 5.25e-05 ± 7.2e-06 s⁻¹.

For the variant A39U G62U, in the series with glucosamine-6-phosphate [1], the “self-cleavage kobs at 40 uM GlcN6P” value is < 1e-05 s⁻¹. Further, the “self-cleavage kobs at 10000 uM GlcN6P” value in the series with glucosamine-6-phosphate [5] was < 1e-05 s⁻¹.

Take U55C G66U: in the series with glucosamine-6-phosphate [6], the catalytic constant (kcat) is 0.00114 ± 0.00044 s⁻¹. The “self-cleavage kobs at 40 uM GlcN6P” value with glucosamine-6-phosphate [1] came to 6.69e-05 ± 1.8e-05 s⁻¹. The “self-cleavage kobs at 160 uM GlcN6P” value with glucosamine-6-phosphate [2] worked out at 0.000202 ± 5.7e-05 s⁻¹. Also, the “self-cleavage kobs at 640 uM GlcN6P” value in the series with glucosamine-6-phosphate [3] stood at 0.000297 ± 5.7e-05 s⁻¹. In addition, the “self-cleavage kobs at 2500 uM GlcN6P” value in the series with glucosamine-6-phosphate [4] came to 0.00105 ± 0.00021 s⁻¹. For the same variant, the “self-cleavage kobs at 10000 uM GlcN6P” value with glucosamine-6-phosphate [5] was 0.00102 ± 0.00022 s⁻¹.

Consider C10A A12C U56A, for which the kcat with glucosamine-6-phosphate [6] turned out to be 0.000168 ± 4.1e-05 s⁻¹. The “self-cleavage kobs at 640 uM GlcN6P” value with glucosamine-6-phosphate [3] amounted to 7.12e-05 ± 3e-05 s⁻¹. The “self-cleavage kobs at 2500 uM GlcN6P” value with glucosamine-6-phosphate [4] was determined as 0.000306 ± 0.00011 s⁻¹. For the same variant, the “self-cleavage kobs at 10000 uM GlcN6P” value with glucosamine-6-phosphate [5] was 0.00015 ± 2.7e-05 s⁻¹.

Turning to A6U G13C A15U, the “self-cleavage kobs at 40 uM GlcN6P” value in the series with glucosamine-6-phosphate [1] was < 1e-05 s⁻¹. Moreover, in the series with glucosamine-6-phosphate [5], the “self-cleavage kobs at 10000 uM GlcN6P” value was < 1e-05 s⁻¹.

In the case of G32U C67G, in the series with glucosamine-6-phosphate [6], the kcat was 0.000119 ± 1.3e-05 s⁻¹. Also, the KM with glucosamine-6-phosphate [7] is 1520 ± 570 µM. Besides, the “self-cleavage kobs at 640 uM GlcN6P” value in the series with glucosamine-6-phosphate [3] stood at 4.87e-05 ± 1.6e-05 s⁻¹. Besides, in the series with glucosamine-6-phosphate [4], the “self-cleavage kobs at 2500 uM GlcN6P” value was found to be 6.69e-05 ± 1.2e-05 s⁻¹. In addition, the “self-cleavage kobs at 10000 uM GlcN6P” value with glucosamine-6-phosphate [5] was determined as 0.000107 ± 1.2e-05 s⁻¹.

Turning to C16A A42U, the “self-cleavage kobs at 40 uM GlcN6P” value in the series with glucosamine-6-phosphate [1] was < 1e-05 s⁻¹. Further, the “self-cleavage kobs at 160 uM GlcN6P” value with glucosamine-6-phosphate [2] is < 1e-05 s⁻¹.

As to G29C A36U A39G G63U, the “self-cleavage kobs at 40 uM GlcN6P” value in the series with glucosamine-6-phosphate [1] is < 1e-05 s⁻¹. For the same variant, in the series with glucosamine-6-phosphate [5], the “self-cleavage kobs at 10000 uM GlcN6P” value was < 1e-05 s⁻¹.
